Measurements as given in a protein production outcome set (Wang et al. 2014).

assay: label from the status in PepcDB records

| Sequence | protein production |
| --- | --- |
| VKDVRKIQFMPMERHNTELLSLVDNLPDPVFAIDLKGAVDMANMSALSLLGLHKQEVIGTQIGALLPSVRFSRWSEGVNARTRENLVIDGLDYILELMPVY | failed |
| VKRFWENVGKPNDTTDGRGTTSLAMTPISQTPGLLAEAMVDLGAIEHNVRVLREHAGHAQLMAVVKADGYGHGATRVAQTALGAGAAELGVATVDEALALRADGITAPVLAWLHPPGIDFGPALLADVQVAVSSLRQLDELLHAVRRTGRTATVTVKVDTGLNRNGVGPAQFPAMLTALRQAMAEDAVRLRGLMSHMVYADKPDDSINDVQAQRFTAFLAQAREQGVRFEVAHLSNSSATMARPDLTFDLVRPGIAVYGLSPVPALGDMGLVPAMTVKCAVALVKSIRAGEGVSYGHTWIAPRDTNLALLPIGYADGVFRSLGGRLEVLINGRRCPGVGRICMDQFMVDLGPGPLDVAEGDEAILFGPGIRGEPTAQDWADLVGTIHYEVVTSPRGRITRTYREAENR | not failed |
| VKRKGVEVIIALDISNSMLAQDVQPSRLEKAKRLISRLVDELDNDKVGMIVFAGDAFTQLPITSDYISAKMFLESISPSLISKQGTAIGEAINLATRSFTPQEGVGRAIIVITDGENHEGGAVEAAKAAAEKGIQVSVLGVGMPEGAPIPVEGTNDYRRDREGNVIVTRLNEGMCQEIAKDGKGIYVRVDNSNSAQKAISQEISKMAKSDVE | not failed |
| VLAPVVPGKALEFPQDFGAHNDFRIEWWYVTGWLETPTGKPLGFQITFFRTATEIDRDNPSHFAPDQLIIAHVALSDPAIGKLQHDQKIARAGFDLAYARTGNTDVKLDDWIFVRETDGRYRTRIEAEDFTLTFILTPSQPLMLQGENGFSRKGPGAPQASYYYSEPHLQVSGIINRQGEDIPVTGTAWLDREWSSEYLDPNAAGWDWISANLDDGSALMAFQIRGKDDSKIWAYAALRDASGHTRLFTPDQVSFHPIRTWRSARTQAVYPVATRVLTGETEWQITPLMDDQELDSRASAGAVYWEGAVTFTRDGQPAGRGYMELTGYVRPLSM | not failed |
| VPGILMCEIFIRANQRSYSVQARSLRLHGVATSVRLEQLFWDVLEEIAARDGMRVTQLIERLYDELVQYRGEAANFTSFLRVCCLRYQVLQAEGRIPADATVPIRSLDAQAVLRGLPANLYDSR | not failed |
| VPKIVDHDERRRALADAVLALIAREGISAVTTRAVAEESGWSTGVLNHYFGSRHELLLAALRRAGDIQGDRYRTILDEEGAGPIEKLRNITASILPLDERRLAMTRVFLFFYAEGAAEETARGEIAAFLARWRGVVRESVVAAQREGTVSTDLDADAVTVALVALTDGLALQAILDPVVMKAISAEDAAARCVDAAVRRTTEEAGAVGR | not failed |
| VQFSLLHSKFHLCSVATRALLLSTYIKFINLFPETKATIQGVLRAGSQLRNADVELQQRAVEYLTLSSVASTDVLATVLEEMPPFPERESSILAKLKRKKGPGAGSALDDGRRDPSSNDINGGME | failed |
| VQLVRLLEEKIKSLQIEIENLRKELNYYKAEMEKMLSPPLIEAVVLDVLPDGRVLVRSSSGPNLVVNIASHIDQKLIKPGISVALNQRGSTILEVLPQKEDPIVKTMEIIERPN | not failed |
| VRISRPDVLLNIHIAQTTCTLSLDSSGESLHRRGYRQEAVEAPLNEVLAAGMILMTGWKGECDLIDPMCGSGTIPIEAALIARNIAPGVFRKEFAFEKWGDFDQNLFDRIYNDDSQEREFTHKIYGYDNNPKANEIATHNVKAAGVSKDIILKLQPFQQFEQPAEKSIIITNPPYGERISTNDLLGLYNMIGERLKHAFVGNDAWILSYREECFDQIGLKPSVKTPLFNGPLECEFRKYQIFDGKY | failed |
| VRRIKLGSQGLEVSAQGLGCMGLSAFYGTPKPETEAIALIHHAIHSGVTFLDTSDIYGPETNELLLSKALKDGVREKVELATKYGIRYAEGKVEFKGDPAYVRAACEASLMRVDVACIDLYYQHRIDTRVPIEITIGELKKLVEEGKIKYIGLSEASASTIRRAHAVHPITALQIEWSLWSRDVEEDIIPTCRELGIGIVAYSPLGRGFFASGPKLVENLDNNDVRKTLPRFQQENLDHNKILFEKVSAMSEKKGCTPAQLALAWVHHQGDDVCPIPGTTKIENLNQNIGALSVKLTPEEMSELESLAQP | failed |
| VRSQVLKYMVPGARVIRGLDWKWRDQDGSPQGEGTVTGELHNGWIDVTWDAGGSNSYRMGAEGKFDLKLAPGY | not failed |
| VSDMNGLGFKPFDLVIPFAVRKGEITGEVHMPSGKTATPEIVDNKDGTVTVRYAPTEVGLHEMHIKYMGSHIPESPLQFYVNYPNSGS | not failed |
| VSDPLHVTFVCTGNICRSPMAEKMFAQQLRHRGLGDAVRVTSAGTGNWHVGSCADERAAGVLRAHGYPTDHRAAQVGTEHLAADLLVALDRNHARLLRQLGVEAARVRMLRSFDPRSGTHALDVEDPYYGDHSDFEEVFAVIESALPGLHDWVDERLARNGPS | not failed |
| VSKAVQYMAKRRIGALIVFEKETGLQDYIETGIAMDSNISQELLINVFIPNTPLHDGAMIIQGTKIAAAASYLPLSDSPKISKSLGTRHRAAVGISEVSDAFTVIVSEETGDISVTFDGKLRRDISNEIFEELLAEHWFGTRFQKKGVK | failed |
| VSKAVQYMAKRRIGALIVFEKETGLQDYIETGIPMNSDISQELLTNVFIPNTPLHDGAMIIQGSKIAVAASYLPLSDSVKISKSLGTRHRAAVGISEVSDAFTVVVSEETGDISVTFDGKLRRDISKDVFEELLAEHWFGAHFQKKGVNS | not failed |
| VSRDENSWLIDGATPLEEVTRVLDIAYFPDEENYETISGFMMYMLRKIPKKTDSVVYGKYKFEVIDTENFKIDQILVSLVKEQE | not failed |
| VVIQFYEERLTWHTGSGNGNGNTNSVNLGSSGGLGSVGGSGAGDDTAPGSVGTTGGGSNIDGGDEEDPEPASPIGSINQDENIKPDESSELDNGQPDADD | failed |

| Sequence | protein production |
| --- | --- |
| VVNDEWLSILGLSRQDITNHISDWDGLIHPNDDQFMKKTVQTHILSGKNYVVEFRMKHADGRWVWIQGSGSVIEYDENTHEPVRLCGTHQDITVRK | failed |
| VWRPKSVSRDDVMVTEYGAVTSERPLPAGTTYSATSVTPPDDPEVLRTSGRDYPADIESRYTGVPASTSAQVGPFTDRLTEDSDSPYQTAATIEQWLEANKNYSLNVSQPPEDDVASEFIFQMDKGYCEYFATSMVVMLRSQDIPARYVVGYSTGERTGQNQYTVRGMNAHAWVEVYFEGVGWVKFDPTPGQ | failed |
| WIAQIHKTKTNYFLNLLKEGKIPLRPGIKRLLDELRKNNIKIAIATTTTYENVSTLLQCTLGDSALEWFDVIGAGDIVSKKKPAPDIYEWVLNQLNLPAEACIAIEDSENGLKSATAAGIKTIITISEYTREQNFSYAALVLEDLESTDHTHQIAAQSFDKPLSVQTLSDLLN | failed |
| WILASTTEGAPSVAPLNVTVFLNESSDNVDIRWMKPPTKQQDGELVGYRISHVWQSAGISKELLEEVGQNGSRARISVQVHNATCTVRIAAVTRGGVGPFSDPVKIFIPAH | not failed |
| WRKDIVLPKDQAKGVRPYNPKFKDSEYFSRYNALINDERLIEFAKKNNYKITFFPHPDIQQQIVDFEKHDYVEFADYNSSYQMLFNSSNIMITDFSSVAFDFAYEKKPVIYYQYEKSYHFKLDYYDYKKMGFGDVLENHNSLVDKVIYYMKNNSRMEDKYRKRVDNFFAYTDKNNRNRIYNAILE | not failed |
| YDDEDYQAEQDRREEQRRAAIAQTGVEVIPVHGVLVSRGSHLNACETMTSYEGLRAALNKAITDPMVEHIVLDIDSPGGSAVGAFELAADIRAATKIKPITGLVNFMAYSGGYLIASACTEVVVSLTSGVGSIGVVASHMDRSKMIEGMGVKVTTVFAGAHKNDLSPNEPITEQSLQVLNEVVQESYQLFTTHVAEYRGRDVADIIATEAACYRGSSAIAIGLADRLESPQ | failed |
| YDLLCRERDNFRILVAITNAVLSRLDIDELVSEVAKEIHHYFNIDAISIVLRSHRKNKLNIYSTHYLDEHHPAHEQSEVDEAGTLTERVFKSKEMLLINLNERDPLAPYERMLFDTWGNQIQTLCLLPLMSGKTMLGVLKLAQCEEKVFTTANLKLLRQIAERVAIAVDNALAYQEIHRLKER | failed |
| YKGQYFTPPHIAQAMAAMTLMDCHSIIEKRGFMKLQEPTCGSGVMIIGSYNHLRQEHFNPQQQLWVRAQDLDFTTAMMCYIQMTLLHIPGEVIIGNTLT | failed |
| YLDLWQTQDAKIRAKLAAVFQAEQNLNEAAIAYCLARALPEETAIFFANSMVVRYAEFFWQLNDQQILPYFNRGANGIDGTLSTALGIAENHSPAVLLTGDLALLHDINGFLTLSKFTGSLTIIVINNQGGGIFEMLPIAEEKDIFEDYFATPQTVEFSKVCDLYGIEYQAIQTKADLMQTCAILPPRGVRLLEVKTNRNQAMTWLKDLFQ | failed |
| YLKDLSLLISNDKQTILYAPTWKGNSVSKVKNDVFQIISDMNYLEEKIGSDYNVLIKVHPFLYSEASKVSELKGKLIPDFIDTNQLLSTVDILITDYSSIFFDFLVTDRPILFYMWDADDYNKQRGKYINNEDLPGPVLYNVRELVEAIGNIHQVKSEFQTNYEKNKVKFTNHDDGNVTKRVVEKIFK | failed |
| YNFSFLSPQGLSFASQGPSAPFWSVFTPRVIGTAVARYNFAARDMRELSLREGDVVRIYSRIGGDQGWWKGETNGRIGWFPSTYVEEEGIQ | failed |
| YRALYPFEARNHDEMSFNSGDIIQVDEKTVGEPGWLYGSFQGNFGWFPCNYVEKMPSSENEKAVSPKKALLPPTVSLSAT | not failed |
| YTFIGNSPVPKSYSLSEMRDAFIKFFEKRGHKFLKPYPVVPRWREDVLLVNASIYDFQPHVTSGIVRPPGNPIVMSQPSIRMNDVDLVGITGRHLTSFEMLCHDSFNTKDKTVYWKEETVHYCYDFLTEGLGIDGKLISFKEKPWSGGGNAGNALEVFVRGLEVATLVFMDMKEDPNGPYEIDGIRYSKMDMRIVDTGYGLERLTWLSQGTPTVYQAIYPDIIQHVMKNSSVSDIDEEFLSEVVKASVMKEP | failed |
| YTISEVVAFTGLTAHTLRWYERIGLMPHIDRSHTGQRRYSNRDLDWLAFVGKLRLTGMPVADMVRYAEMVREGDGTYTQRYEILESTRRDVLARIAELQDTLAVLDHKISFYADAGRALTSERSR | failed |
| YTVEPVQDGERSVTLRRAGGTPLVAAMYHLPAAGSPDFVGLDLAATILADTPSGRLYHALVPTKLASGVFGFTMDQLDPGLAMFGAQLQPGMDQDKALQTLTATLESLSSKPFSQEELERARSKWLTAWQQTYADPEKVGVALSEAIASGDWRLFFLQRDRVRDAKLDDVQRAAVAYLVRSNRTEGRYIPTEKPQRAPLAQRADLAAV | not failed |
| YYFKEYHLPYPKGVIFSGNIPPCFYHKSDPPLHLLPDKIFLEEVSKLGGIPGKIIKEKQFVEYFVPIIKNDFKLIENYYFQQKQEKFPVKSLICSGKDDKFRVKDLVQWENYFIDKCSISLFKGGHFYIDDNIASLCNQIKDFIY | failed |
| YYLIVSQLLGDTASVKLLVPPGANPHLFSLKPSDAKTLEEADLIVANGLGLEPYLEKYREKTVFVSDFIPALLLIDDNPHIWLDPFFLKYYIVPGLYQVLIEKFPEKQSEIKQKAEEIVSGLDTVIRDSFKALLPYTGKTVVMAHPSFTYFFKEFGLELITLSSGHEHSTSFSTIKEILRKKEQIVALFREPQQPAEILSSLEKELRMKSFVLDPLGVNGEKTIVELLRKNLSVIQEALK | not failed |
